Measurements taken from patent US20240383984A1 (Genentech, published 2024).

T1: human FcRH5 protein fragment (soluble) (human, UniProt Q96RD9 16-851)
T1 construct: whole entry named; also called soluble human FcRH5; Human FcRH5 (BIACORE analyte)
T1 sequence: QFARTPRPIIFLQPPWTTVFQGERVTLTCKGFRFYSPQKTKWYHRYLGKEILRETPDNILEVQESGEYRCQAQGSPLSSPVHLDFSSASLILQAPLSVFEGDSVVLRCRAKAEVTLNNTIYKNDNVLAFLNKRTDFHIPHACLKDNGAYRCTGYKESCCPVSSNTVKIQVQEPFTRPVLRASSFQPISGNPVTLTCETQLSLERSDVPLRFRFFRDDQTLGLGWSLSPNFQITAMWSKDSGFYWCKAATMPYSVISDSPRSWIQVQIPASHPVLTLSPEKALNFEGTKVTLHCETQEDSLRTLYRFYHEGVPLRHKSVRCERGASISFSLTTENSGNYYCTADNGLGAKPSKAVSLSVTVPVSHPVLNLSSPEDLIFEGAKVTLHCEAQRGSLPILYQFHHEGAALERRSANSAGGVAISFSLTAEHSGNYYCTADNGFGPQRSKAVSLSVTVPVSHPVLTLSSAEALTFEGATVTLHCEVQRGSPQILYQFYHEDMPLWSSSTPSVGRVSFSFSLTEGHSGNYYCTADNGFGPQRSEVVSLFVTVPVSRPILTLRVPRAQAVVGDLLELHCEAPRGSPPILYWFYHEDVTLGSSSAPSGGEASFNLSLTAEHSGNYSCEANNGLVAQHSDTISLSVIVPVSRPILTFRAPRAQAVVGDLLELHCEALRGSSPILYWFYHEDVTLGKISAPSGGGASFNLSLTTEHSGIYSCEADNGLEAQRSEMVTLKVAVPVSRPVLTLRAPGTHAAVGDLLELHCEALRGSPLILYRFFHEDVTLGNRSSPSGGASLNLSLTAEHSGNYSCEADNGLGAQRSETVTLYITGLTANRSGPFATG


What follows are binders tested against T1, human FcRH5 protein fragment (soluble) (assay: BIACORE, human IgG1, soluble human FcRH5).

Row | Binder | Fold improvement over hu1G7.v1 | Kd | Fold improvement over hu1G7.v86
1 | 1G7.v1E (antibody, human IgG1, V domains shown, human IgG1 with the light chain of hu1G7.v1; also called E (hu1G7.v1 heavy chain V37Y)) VH: EVQLVESGPGLVKPSETLSLTCTVSGFSLTRFGVHWYRQPPGKGLEWLGVIWRGGSTDYNAAFMSRLTISKDNSKNQVSLKLSSVTAADTAVYYCSNHYYGSSDYALDNWGQGTLVTVSS VL: DIQMTQSPSSLSASVGDRVTITCKASQDVSNIVVWFQQKPGKSPKLLIYSASYRYTGVPSRFSGSGSGTDFTLTISSLQPEDFATYYCQQHYSSPYTFGQGTKVEIK | 1.3 fold | 11 nM | –
2 | 1G7.v1G (antibody, human IgG1, V domains shown, human IgG1 with the light chain of hu1G7.v1; also called G (hu1G7.v1 heavy chain M64G)) VH: EVQLVESGPGLVKPSETLSLTCTVSGFSLTRFGVHWVRQPPGKGLEWLGVIWRGGSTDYNAAFGSRLTISKDNSKNQVSLKLSSVTAADTAVYYCSNHYYGSSDYALDNWGQGTLVTVSS VL: DIQMTQSPSSLSASVGDRVTITCKASQDVSNIVVWFQQKPGKSPKLLIYSASYRYTGVPSRFSGSGSGTDFTLTISSLQPEDFATYYCQQHYSSPYTFGQGTKVEIK | 1 fold | 14.4 nM | –
3 | 1G7.v1H (antibody, human IgG1, V domains shown, human IgG1 with the light chain of hu1G7.v1; also called H (hu1G7.v1 heavy chain S65D)) VH: EVQLVESGPGLVKPSETLSLTCTVSGFSLTRFGVHWVRQPPGKGLEWLGVIWRGGSTDYNAAFMDRLTISKDNSKNQVSLKLSSVTAADTAVYYCSNHYYGSSDYALDNWGQGTLVTVSS VL: DIQMTQSPSSLSASVGDRVTITCKASQDVSNIVVWFQQKPGKSPKLLIYSASYRYTGVPSRFSGSGSGTDFTLTISSLQPEDFATYYCQQHYSSPYTFGQGTKVEIK | 1 fold | 15 nM | –
4 | 1G7.v1I (antibody, human IgG1, V domains shown, human IgG1 with the light chain of hu1G7.v1; also called I (hu1G7.v1 heavy chain S65P)) VH: EVQLVESGPGLVKPSETLSLTCTVSGFSLTRFGVHWVRQPPGKGLEWLGVIWRGGSTDYNAAFMPRLTISKDNSKNQVSLKLSSVTAADTAVYYCSNHYYGSSDYALDNWGQGTLVTVSS VL: DIQMTQSPSSLSASVGDRVTITCKASQDVSNIVVWFQQKPGKSPKLLIYSASYRYTGVPSRFSGSGSGTDFTLTISSLQPEDFATYYCQQHYSSPYTFGQGTKVEIK | 0.9 fold | 16.2 nM | –
5 | hu1G7.v86 (antibody, human IgG1, V domains shown, human IgG1) VH: EVQLVESGPGLVKPSETLSLTCTVSGFSLTRFGVHWVRQPPGKGLEWLGVIWRGGSTDYNAAFVSRLTISKDNSKNQVSLKLSSVTAADTAVYYCSNHYYGSSDYALDNWGQGTLVTVSS VL: DIQMTQSPSSLSASVGDRVTITCKASQDVSNLVVWFQQKPGKSPKLLIYSGSYRYSGVPSRFSGSGSGTDFTLTISSLQPEDFATYYCQQHYSPPYTFGQGTKVEIK | 10.3 fold | 1.4 nM | –
6 | hu1G7.v91 (antibody, human IgG1, V domains shown) VH: EVQLVESGPGLVKPSETLSLTCTVSGFSTTRFGVHWVRQPPGKGLEWLGVIWRGGSTDYNAAFVSRLTISKDNSKNQVSLKLSSVTAADTAVYYCSNHYYGSSDYALDNWGQGTLVTVSS VL: DIQMTQSPSSLSASVGDRVTITCKASQDVSNLVVWFQQKPGKSPKLLIYSGSYRYSGVPSRFSGSGSGTDFTLTISSLQPEDFATYYCQQHYSPPYTFGQGTKVEIK | – | 0.7 nM | –
7 | hu1G7.v92 (antibody, human IgG1, V domains shown, human IgG1) VH: EVQLVESGPGLVKPSETLSLTCTVSGFSLTRFGVHWVRQPPGKGLEWLGVIWRGGSTDYNAAFVSRLTISKDNSKNQVSLKLSSVTAADTAVYYCSNHYYGSPDYALDNWGQGTLVTVSS VL: DIQMTQSPSSLSASVGDRVTITCKASQDVSNLVVWFQQKPGKSPKLLIYSGSYRYSGVPSRFSGSGSGTDFTLTISSLQPEDFATYYCQQHYSPPYTFGQGTKVEIK | 15.9 fold | 0.9 nM | 1.5 fold
8 | hu1G7.v93 (antibody, human IgG1, V domains shown, human IgG1) VH: EVQLVESGPGLVKPSETLSLTCTVSGFSTTRFGVHWVRQPPGKGLEWLGVIWRGGSTDYNAAFVSRLTISKDNSKNQVSLKLSSVTAADTAVYYCSNHYYGSPDYALDNWGQGTLVTVSS VL: DIQMTQSPSSLSASVGDRVTITCKASQDVSNLVVWFQQKPGKAPKLLIYSGSYRYSGVPSRFSGSGSGTDFTLTISSLQPEDFATYYCQQHYSPPYTFGQGTKVEIK | 25.3 fold | 0.6 nM | 2.5 fold

More lines, in order of falling Kd, values ahead:

Row | Fold improvement over hu1G7.v1 | Kd | Fold improvement over hu1G7.v86 | Binder
9 | 1 fold | 15.3 nM | – | 1G7.v1J (antibody, human IgG1, V domains shown, human IgG1 with the light chain of hu1G7.v1; also called J (hu1G7.v1 heavy chain K81M)) VH: EVQLVESGPGLVKPSETLSLTCTVSGFSLTRFGVHWVRQPPGKGLEWLGVIWRGGSTDYNAAFMSRLTISKDNSKNQVSLMLSSVTAADTAVYYCSNHYYGSSDYALDNWGQGTLVTVSS VL: DIQMTQSPSSLSASVGDRVTITCKASQDVSNIVVWFQQKPGKSPKLLIYSASYRYTGVPSRFSGSGSGTDFTLTISSLQPEDFATYYCQQHYSSPYTFGQGTKVEIK
10 | 1 fold | 15 nM | – | 1G7.v1K (antibody, human IgG1, V domains shown, human IgG1 with the light chain of hu1G7.v1; also called K (hu1G7.v1 heavy chain S82bD)) VH: EVQLVESGPGLVKPSETLSLTCTVSGFSLTRFGVHWVRQPPGKGLEWLGVIWRGGSTDYNAAFMSRLTISKDNSKNQVSLKLSDVTAADTAVYYCSNHYYGSSDYALDNWGQGTLVTVSS VL: DIQMTQSPSSLSASVGDRVTITCKASQDVSNIVVWFQQKPGKSPKLLIYSASYRYTGVPSRFSGSGSGTDFTLTISSLQPEDFATYYCQQHYSSPYTFGQGTKVEIK
11 | 1.2 fold | 11.7 nM | – | 1G7.v1F (antibody, human IgG1, V domains shown, human IgG1 with the light chain of hu1G7.v1; also called F (hu1G7.v1 heavy chain A61P)) VH: EVQLVESGPGLVKPSETLSLTCTVSGFSLTRFGVHWVRQPPGKGLEWLGVIWRGGSTDYNPAFMSRLTISKDNSKNQVSLKLSSVTAADTAVYYCSNHYYGSSDYALDNWGQGTLVTVSS VL: DIQMTQSPSSLSASVGDRVTITCKASQDVSNIVVWFQQKPGKSPKLLIYSASYRYTGVPSRFSGSGSGTDFTLTISSLQPEDFATYYCQQHYSSPYTFGQGTKVEIK
12 | 3 fold | 4.8 nM | – | 1G7.v1L (antibody, human IgG1, V domains shown, human IgG1 with the light chain of hu1G7.v1; also called L (hu1G7.v1 heavy chain S100P)) VH: EVQLVESGPGLVKPSETLSLTCTVSGFSLTRFGVHWVRQPPGKGLEWLGVIWRGGSTDYNAAFMSRLTISKDNSKNQVSLKLSSVTAADTAVYYCSNHYYGSPDYALDNWGQGTLVTVSS VL: DIQMTQSPSSLSASVGDRVTITCKASQDVSNIVVWFQQKPGKSPKLLIYSASYRYTGVPSRFSGSGSGTDFTLTISSLQPEDFATYYCQQHYSSPYTFGQGTKVEIK
